Test results: paper PMC3985343 (The Laryngoscope, 2013)

Target: Wildtype His6-Gαi1 (UniProt P63096 1-354)
Assay: SPR

Sequence of Wildtype His6-Gαi1 (P63096 whole entry): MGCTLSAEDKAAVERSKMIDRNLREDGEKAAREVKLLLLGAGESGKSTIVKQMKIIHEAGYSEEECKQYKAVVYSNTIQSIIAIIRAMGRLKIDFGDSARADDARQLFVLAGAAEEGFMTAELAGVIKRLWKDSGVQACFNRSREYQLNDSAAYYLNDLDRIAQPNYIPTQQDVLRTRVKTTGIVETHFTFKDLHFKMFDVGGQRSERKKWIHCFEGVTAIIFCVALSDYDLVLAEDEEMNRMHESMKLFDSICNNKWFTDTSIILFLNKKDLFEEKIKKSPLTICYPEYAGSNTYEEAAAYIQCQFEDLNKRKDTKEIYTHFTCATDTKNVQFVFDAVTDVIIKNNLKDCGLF

Kd: 57 nM
B1: RGS21 (regulator of G protein signaling-21), wildtype, His6 tag cleaved (natural protein, human, UniProt Q2M5E4 1-152, looked up)
chain: MPVKCCFYRSPTAETMTWSENMDTLLANQAGLDAFRIFLKSEFSEENVEFWLACEDFKKTKNADKIASKAKMIYSEFIEADAPKEINIDFGTRDLISKNIAEPTLKCFDEAQKLIYCLMAKDSFPRFLKSEIYKKLVNSQQVPNHKKWLPFL
